Test system: Saccharomyces cerevisiae
Experiment: transcriptional activation domain activity (GFP:mCherry ratio, weighted mean of sorted bins, harmonized to initial dataset scale) (arbitrary fluorescence ratio units); higher = stronger transcriptional activation
Conditions: beta-estradiol 1 µM; induction time 4 h
Procedure, shortened: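 Protein tiles carrying barcodes and fused to an estradiol-inducible synthetic transcription factor were placed at the URA3 locus of yeast diploids with a GFP reporter. Following 4 hours at 30 °C in SC with 1 uM beta-estradiol, cells were sorted into 8 GFP:mCherry bins, barcodes were sequenced, and tiles with fewer than 50 reads were discarded. Activation activity is given as the read-weighted mean of bin median fluorescence, averaged across barcodes and linearly mapped to the initial dataset scale.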

EPRISEGGLAALVASSPCKPAAVPILLTGPPKQAKACSSRLTGTHRPASNCKS
transcriptional activation domain activity: 36500

MIHVPLIIFYIILNLFVAYLCLLIFSYYYRMIAQLLYNQCMIQMQPIIHQIKE
transcriptional activation domain activity: 53500

STSIRWEIFYARFFIMMLFYTIVGLFLTIACFSLRYHLFIWTVFSPKLLFFFV
transcriptional activation domain activity: 48800

ITWSQLRRRFTPGFETFLDIGIERGWYSCNNTLQVMVFRWVFIPWLQQELSAY
transcriptional activation domain activity: 30600

FLSLLVLVCWVPCFVIMEVYLKSLTFNSVPYPPIHCFTPEGSHILYLCWGLIA
transcriptional activation domain activity: 32200

SDESTKADSGNKDNPGGAEKSGDEKEKEKDGGTSRMRSRKGKFRKNKAEDIEK
transcriptional activation domain activity: 30400

ELGLLADIMQHEIQGFWGLIKILAKRRKNKYHANMADVNMRSVFQKAFTSWMM
transcriptional activation domain activity: 44500

IVIPGGRPGSVGGGGWFGGSSVFLEGLEGLEDGVMFGNAWEFDLLDLEWLFPF
transcriptional activation domain activity: 121000

GAKVRSWPLTYIYTLYFFMTYFIFYRNLFARLQDPKQVLYLQLGLSMWIVFIY
transcriptional activation domain activity: 35200

MELFFGLSFFLAYVPGCYSFLLTILIPLLCYYIFTRYLRCLVLHGLGFFFSLF
transcriptional activation domain activity: 77000

ESEKAGGKRKQERRSRAGRGEGEGEERENRCRGEEGRGREGGGRREGKEGVGG
transcriptional activation domain activity: 39400

DAAKPAQGLFGGALAAGKSGETPKPAGSLFGAPSSSTKTGEEAKPAGGLFGAG
transcriptional activation domain activity: 26100

CFAMVQQIFAKLLIMFEPRLDIPLLKFYTLLYRSVYYAICRRQQLYQEDMIAA
transcriptional activation domain activity: 57700

QTVNFGWSDLPHDVYTHLSSDFENPFYFDGIFPTLVDYSPLIVSPPNFLTLEP
transcriptional activation domain activity: 138000

AFAGVLLCYFFILFYFIFFFLFFSWLLLLVEYIVWDNLINLLFLVSCFSFFFA
transcriptional activation domain activity: 55300

KGGSEKSGNAGKKEDAGKKEAEKKKVEAGKNQGKGKQNTGSGGNKKAAKKGKK
transcriptional activation domain activity: 18400

PHGLLLPLLAHLFSLVLKISFLFCFEYKLAIFIFALVWQSLVVASLTCGFVFV
transcriptional activation domain activity: 55700

MLRLYHLMWDSGDYIYTIIGGWLPLPRDLMYVPFPGFYLKYMIFPTPLTLSVL
transcriptional activation domain activity: 43600

YALIHFFRLYRSGHGPIRMFFLHIQALYNLFNLVFSWFALANLWLAFSIIIRL
transcriptional activation domain activity: 75800

CGFVVFVIRWSTVSVGYLGIIRWLVICKKLQFSEIKRIMRVYFCHMALFIFTL
transcriptional activation domain activity: 40900

KVVQQFCGCHSRAANGCSGDELLRQYDYDEEDTVSSNRRFANETCRVAVLTVR
transcriptional activation domain activity: 65900

MYLWVLLQKVGLLLLLLLLLLLLLLLLLLHWLLHLLLLLLLLLLLLYQVCLQW
transcriptional activation domain activity: 23400

EVEAAIAAAAAEVEKVEVKAKAKAEAAAAAAAAAEAAAAAEARAAAAAAAQAA
transcriptional activation domain activity: 30700

EETKAEEPKATEAATTSTAPAAATEATTAATAETTTEEAKPATNGSTAAADAA
transcriptional activation domain activity: 23200

PIHALFCTHIWLLFKLCILCVLFLLSLLCLYGGSMINTGLRIILHLLLCVYLF
transcriptional activation domain activity: 81800

MLYRVYLDIFFFLYCLFVLGAFQDTRRFLFKFWAFPLLKVWQVVTIHLTCTQY
transcriptional activation domain activity: 61800

AFMVSRMVILPFVYSLPVLYDILRPFTAHFLRPKFTLTFLWTHFDLITRVFFL
transcriptional activation domain activity: 53400

SGKLVFGPVSVFNGNVSLRIKKPLKGMTLTVTFNGVAEVDKYLFTFLNISHEV
transcriptional activation domain activity: 57800

LSVSLVYNSAYLLQRISFWVISFSTYTLPTWLFTLFSTSLTFTMNFTTLLIIV
transcriptional activation domain activity: 78700

SVLHTMYVVAIKDSSAWYGDSPADLCMIGFWNLVIVWLKLLIPWRFFRLWAIL
transcriptional activation domain activity: 55900

SASASASGATASASASAAAGAGGKGGFGGKGGFGGGFGGKGQGGKGGKGGAAA
transcriptional activation domain activity: 34000

MSTAGHSRQPDHATVPARSFGGCSTCRRRHIKCDEGRPSCSACRDSGLACGGY
transcriptional activation domain activity: 53000

MRFLLTIIHFFLTLFLSYTLFLSVILLFSRLYYFLSIIRSSYAIIWIFFLFIL
transcriptional activation domain activity: 52000

MSATEATAVPAPAEEVKVVETPAVDPVPEAPAAEESAPATEVKKEERPKSPSL
transcriptional activation domain activity: 54600

AQLTLRAIVSSKEAGVIIGKGGKNVADLRDETGVKAGVSKVVQGVHDRVLTIT
transcriptional activation domain activity: 29600

FCVAAMIGEYGTTYYPTVTYWGELEVLGKIFWTLPLESFANSISGIIVDCYLI
transcriptional activation domain activity: 63500

MSRVYNLFLKAFRYKLPSLYQHIHVILNLPPSMYLEAMFLTLFTLHCPIDVAS
transcriptional activation domain activity: 53400

SIYCRLIQKSLFLMMVPIVQMPPLLLLLTCYFLRIFLSFFTRMYFVCFVLIFL
transcriptional activation domain activity: 62400

MCSILPTVCNQYLIFLSFVSCPSMLYLISYFFLMWSFFSLHNWFFCWVPCCVL
transcriptional activation domain activity: 52700

LCASSLIWMTVSRHHLPPTIANLPATTLLILTFISLLLSIFLQFLFWALLFFW
transcriptional activation domain activity: 65300

ICIIPFVNGFLCEPILPLFFFCSFLILSESWFIFLHWFGSWSLVIYFGSWCLF
transcriptional activation domain activity: 79700

TLLASFVIDHLKEGVASDEIVLFAFADFQDTRSTNVVVLLRTLLAQLLDRCKP
transcriptional activation domain activity: 65200

GGETAAPPAEPAPAPAAEPEEEEEPVKGKGKGGKGGKKGGKGGKKAKKEEVPA
transcriptional activation domain activity: 23600

AASAPAASSPSASAPADEAAENGEEAASSSKNKKKKKKGAAGGAAPAAGGKKP
transcriptional activation domain activity: 40700

ARYIVKYKNGLIGKHFKILQHLGIFHLHNDLCGDNLFNLWKAAGGLGALLWFP
transcriptional activation domain activity: 57600

EAPAAEPVKETETAAEAAPAEAPAEAAAEETKEEKKEEKKEEKVKASKVGRRL
transcriptional activation domain activity: 44900

MPLRLRCNCILFYLLFFPLFFFNSTCDFSILLVIFFYSTFSLDFSSFLLFFFF
transcriptional activation domain activity: 55500

LWLYLAKQLFYEDLGWFFLLLAFYFTWPLIFLLFLIFWMLFVLVYVLFYLVSF
transcriptional activation domain activity: 52300

PPPPPPPPPPGRGGAGHPPPPPPPPPPPAGGGGGPPPPPPPPPPSGGAPPPPP
transcriptional activation domain activity: < 6570

NWHHSIQVPYSFVANYDHPVCHMLHRWLPLYIPAVALRMHILTYLLLVAFFSL
transcriptional activation domain activity: 57700

GIHETLSFYFVFVCFLYGLRSMALMIGLTGALFLLFMDMLVFGMATAVLIDYG
transcriptional activation domain activity: 50700

DKPIAAKKPSAQRKRKVKLESDADSSGDDQPIVKKPAAKKPRASKAKKEEPAS
transcriptional activation domain activity: 23100

KPHHKWIVPTPFASHAFHPVDGYFQSLPYHIFIFVFPMQRHLYLALFVAVNCW
transcriptional activation domain activity: 41800

GFVVQQLQKLFLTCIALKLVQRVNSLNKLFKTAVGSLPVILSLLGLWIILFLF
transcriptional activation domain activity: 47200

LLKAVQEDEGDDGVIVAYLDTLVPLLEDYLTSGPLGQFTLRLRLLLSFQVYAS
transcriptional activation domain activity: 53800

MIRDTPKSPSHPPSARSSSSRASSTTSCLSSTSTPAARTSSSSTTARTPVPRP
transcriptional activation domain activity: 28600

TAVSQLERAIARILLIRYEQDIARLFSTRLYSVALVHLPTFVMRCAALAGPGW
transcriptional activation domain activity: 50400

DIDMEDVDGDAAPSAKKAKASKKRKKDAESDGEQEKACLSFRTILLHSLIFIQ
transcriptional activation domain activity: 41900

CFALVVAFGISRNTLLVKAFRCIQYCLSKMSYCLATRLQCCPEYSCYIHQPGD
transcriptional activation domain activity: 75300

RVYKRDPMLYLSSGWQYQGHFVYVTRLDVIHLSSWLRVFCFQIQHFSSVWWVL
transcriptional activation domain activity: 59000

RGGKGVEEERGEGGGRGEGERGQGGRGRGGRGAGARGRGGTGEEGEGAGGKQE
transcriptional activation domain activity: 51400

LAEGAATEEAKTEEGSAPAGETAALAEAAATEEAAATEEVKEEKKEEAATTKA
transcriptional activation domain activity: 29900

LTHEPSKPPRRVPYTTLLHTVPLLIILTVLSAVVCYVHILLLRVFVKPVVIGT
transcriptional activation domain activity: 46600

GIYAFGKMYFIPYLLSNHWVVMLTYLQHSDPTIPVYRRGQWSFVRGALSTIDR
transcriptional activation domain activity: 41800

MLLFSKLYYEAVGVGCLSYFDFQSLQVWVLDICASWYFVLAFNSYFVVSLFFG
transcriptional activation domain activity: 36200

MDGVGLGSHRGSGSSSSSSSSAADRAPRHSTRRKRGRESRGAVVVIAATNRPN
transcriptional activation domain activity: 39200

GSSTTPARCTSARTMRSASYGASKYKGREGKVTQVYRKKWVIHVQRDKVGQVR
transcriptional activation domain activity: 83200

KSKSSRSSRRREGEEDDDRRRRRHRHRSRSRSRSRGRGGGSDDGSKEQRRSSR
transcriptional activation domain activity: 40100

MRLSRCCVFILLFFFDLVYYYPFLLLFNGFGGICIFLVLKRSHRETEFICFMQ
transcriptional activation domain activity: 60600

RQAAMPKRKSPEEEDEEDEEEAPAKPAAKKAKTATAANGEKKSAGRGRPKKAA
transcriptional activation domain activity: 31700

MSQSFLFCPFQCLSLYLFPFCLCFCFPTLAFLSRFSYFILVLFSFLPLLAFVA
transcriptional activation domain activity: 18500

LNILILGSVLTDFDTLLRPETMQWNPPLGVWLIWWMQWQMFIPLLILQFLNLY
transcriptional activation domain activity: 55400

EDEGEKDDDEEVKEVKEEGDNSGEEGKEGNGEEAKTEEDKPSEEQQQQAKEEA
transcriptional activation domain activity: < 6570

MGGFVYAYCSAQSLTLLPWLLFFDYLFFSFLCILNYISFLFFYFLGFEVGWVI
transcriptional activation domain activity: 71200

MEAREGRAGNAFACERCRKHKVRCVPSGTAGICQRCQKARVECIEHVARRRPA
transcriptional activation domain activity: 29100

QYTKLFFFFFLWPLPSLSLLHLPHFSCSLFPFFPTFAPPFSLSLYLSQSFLFL
transcriptional activation domain activity: 54900

QLQPFSESQSQNKFDYDMFFRDSSKEGNNLFGEFLEDDDDDKKAANMSDDESS
transcriptional activation domain activity: 43800

GAYYLVSGLNGFELYEFDDNYHCGCCRDVHYRLFWFLIETISVLHGRWVFLQV
transcriptional activation domain activity: 28800

IPGPILLCSLTALSCLTLFTLLVSIYWSVSSVCHLIFLTILWILRCLVTLLRF
transcriptional activation domain activity: 34600

EETPVTEAPKAVEESKPVEEVKSEQKEGAAETAKDEPAQETATERSTESTPAS
transcriptional activation domain activity: 34900

LASISSLQSSQSLDQNFSIPQSPPLSSMSFNFLTGNINETNQNHSNHQHSKSG
transcriptional activation domain activity: 22700

ELVVLRFWSLKAIVFFFVLVLQTVSLGAGKGGGLYKDLFTLFLHILCILELCC
transcriptional activation domain activity: 61300

TNTGFGASNTPAGGAGGGGGIFGSGTSGFGGGTSAFGAANNNNAFGAKPAFGA
transcriptional activation domain activity: 45600
